From US20260166185A1 (Y MABS THERAPEUTICS, published 2026) come the findings set out here.

The target of assay [1] is T1, bio-huCD38 (human (hu), UniProt P28907 43-300, biotinylated (bio-), site not stated). Briefly: SPR, antigen immobilized, antibody as analyte 50-3.1 nM. Here is the method: (§1) SPR analysis was performed on a Biocore 8K+, using a CFJB0944 CM5 sensor chip for immobilization and a SPR running buffer 1×HBS-EP+pH 7.4 (Cytiva, cat no. BR100669) according to the manufacturer's instructions.
(§2) In the second part of this example, antigen was immobilized on the chip and antibody dissolved in the SPR running buffer flowed over the chip.
A general note: In SPR one partner is held on a chip, and binding of the other changes the refractive index at the surface.

In assay [2] the target is T1, bio-huCD38. The experiment in a line: SPR, antibody captured on chip, antigen as analyte 200-6.25 nM. Here is the method:
as §1
In the first part of this example the antibody was immobilized on the chip and the antigen dissolved in the SPR running buffer flowed over the chip.

The target in assay [3] is T2, CD38 on Daudi cells (UniProt P28907 1-300, limits assumed).
T2 construct: whole, on cells
Briefly: titration binding FACS on Daudi cells. As to the method: Subsequently the EC50 of antibodies samples was determined by titration binding FACS on Daudi cells (for CD38 binding evaluation), on THP-1 cells (for CD33 binding evaluation), on A-431 cells (for EGFR binding evaluation), on MKN-45 cells (for CEACAMS binding evaluation) and on HEK293T (for CD276 binding evaluation). Jurkat E6-1 or HEK293T cell lines were used as negative control, as applicable.

The target in assay [4] is T1, bio-huCD38. Briefly: SPR (Biacore 8K+), immobilized antigen.
Assay [5] has as its target T1, bio-huCD38. The experiment in a line: SPR, antigen immobilized, antibody as analyte 25-1.6 nM. As to the method: as §1, §2
Assay [6] concerns the target T1, bio-huCD38. The experiment in a line: SPR, antigen immobilized, antibody as analyte 100-6.25 nM. Here is the method: as §1, §2
Assay [7] addresses Bio-huHER2/Erb2 (human (hu), UniProt P04626 23-652, biotinylated (bio-), site not stated). The experiment in a line: SPR (Biacore 8K+), immobilized antigen, 25.0-1.6 nM.
For assay [8], the target named is T1, bio-huCD38. The assay is described as above.

B1: CD38-DOTA(fab)-p53_C-Term-HC (bispecific antibody)
light: QAVVIQESALTTPPGETVTLTCGSSTGAVTASNYANWVQEKPDHLFTGLIGGHNNRPPGVPARFSGSLIGDKAALTIAGTQTEDEAIYFCALWYSDHWVIGGGTRLTVLGQPKANPTVTLFPPSSEELQANKATLVCLISDFYPGAVTVAWKADGSPVKAGVETTKPSKQSNNKYAASSYLSLTPEQWKSHRSYSCQVTHEGSTVEKTVAPTECS
heavy: HVKLQESGPGLVQPSQSLSLTCTVSGFSLTDYGVHWVRQSPGKGLEWLGVIWSGGGTAYNTALISRLNIYRDNSKNQVFLEMNSLQAEDTAMYYCARRGSYPYNYFDAWGRGTTVTVSSASTKGPSVFPLAPSSKSTSGGTAALGCLVKDYFPEPVTVSWNSGALTSGVHTFPAVLQSSGLYSLSSVVTVPSSSLGTQTYICNVNHKPSNTKVDKKVEPKSCGGGGSGGGGSGGGGSGGGGGSDVQLQESGGGLVQAGGSLRLSCTGSGRTFRNYPMAWFRQAPGKEREFVAGITWVGASTLYADFAKGRFTISRDNAKNTVYLQMNSLKPEDTAVYSCAAGRGIVAGRIPAEYADWGQGTQVTVSSGGGGSGGGGSKPLDGEYFTLQIRGRERFEMFRELNEALELKDAQAGKEPGGS
notes: VHH C-terminal of the Fab heavy chain, before p53; also called YM00014; molecule 13
In assay [1], B1 registered a dissociation constant (Kd) of 0.163 nM, an off-rate (koff) of 1.52e-05 s⁻¹ and a kon of 93300 M⁻¹ s⁻¹. In assay [2], this molecule gave a Kd of 1.33 nM, an off-rate (koff) of 7.59e-05 s⁻¹ and a kon of 57000 M⁻¹ s⁻¹. In addition, the 50% effective concentration (EC50) in assay [3] is 2.36 nM.

B2: CD38-DOTA(fab)-dp53 (bispecific antibody)
light: DVQLQESGGGLVQAGGSLRLSCTGSGRTFRNYPMAWFRQAPGKEREFVAGITWVGASTLYADFAKGRFTISRDNAKNTVYLQMNSLKPEDTAVYSCAAGRGIVAGRIPAEYADWGQGTQVTVSSGGGGSGGGGSGGGGSGGGGGSQAVVIQESALTTPPGETVTLTCGSSTGAVTASNYANWVQEKPDHLFTGLIGGHNNRPPGVPARFSGSLIGDKAALTIAGTQTEDEAIYFCALWYSDHWVIGGGTRLTVLGQPKANPTVTLFPPSSEELQANKATLVCLISDFYPGAVTVAWKADGSPVKAGVETTKPSKQSNNKYAASSYLSLTPEQWKSHRSYSCQVTHEGSTVEKTVAPTECS
heavy: HVKLQESGPGLVQPSQSLSLTCTVSGFSLTDYGVHWVRQSPGKGLEWLGVIWSGGGTAYNTALISRLNIYRDNSKNQVFLEMNSLQAEDTAMYYCARRGSYPYNYFDAWGRGTTVTVSSASTKGPSVFPLAPSSKSTSGGTAALGCLVKDYFPEPVTVSWNSGALTSGVHTFPAVLQSSGLYSLSSVVTVPSSSLGTQTYICNVNHKPSNTKVDKKVEPKSCGGHHHHHH
notes: No tetramerization domain; also called YM00017; molecule 15
B2 showed a concentration giving a half-maximal response (EC50) in assay [3] of 1.07 nM. In assay [4], the dissociation constant (Kd) was 0.316 nM, the dissociation rate constant (koff) turned out to be 0.000148 s⁻¹ and the on-rate constant (kon) came out at 470000 M⁻¹ s⁻¹.

B3: CD38-DOTAM(Fab)-p53 (bispecific antibody)
light: DVQLQESGGGLVQAGGSLRLSCTGSGRTFRNYPMAWFRQAPGKEREFVAGITWVGASTLYADFAKGRFTISRDNAKNTVYLQMNSLKPEDTAVYSCAAGRGIVAGRIPAEYADWGQGTQVTVSSGGGGSGGGGSGGGGSGGGGGSDIQMTQSPSSLSASVGDRVTITCQSSHSVYSDNDLAWYQQKPGKAPKLLIYQASKLASGVPSRFSGSGSGTDFTLTISSLQPEDFATYYCLGGYDDESDTYGFGGGTKVEIKRTVAAPSVFIFPPSDEQLKSGTASVVCLLNNFYPREAKVQWKVDNALQSGNSQESVTEQDSKDSTYSLSSTLTLSKADYEKHKVYACEVTHQGLSSPVTKSFNRGEC
heavy: VTLKESGPVLVKPTETLTLTCTVSGFSLSTYSMSWIRQPPGKALEWLGFIGSRGDTYYASWAKGRLTISKDTSKSQVVLTMTNMDPVDTATYYCARERDPYGGGAYPPHLWGRGTLVTVSSASTKGPSVFPLAPSSKSTSGGTAALGCLVKDYFPEPVTVSWNSGALTSGVHTFPAVLQSSGLYSLSSVVTVPSSSLGTQTYICNVNHKPSNTKVDKKVEPKSCGGGGSGGGGSKPLDGEYFTLQIRGRERFEMFRELNEALELKDAQAGKEPGGS
notes: Tetramerizes through p53 depending on concentration; also called YM00006; molecule 5
In assay [2], B3 displayed a Kd of 2.09 nM, a koff of 7.86e-05 s⁻¹ and a kon of 37600 M⁻¹ s⁻¹. For the same molecule, the EC50 in assay [3] came out at 0.59 nM. In assay [5], the affinity, expressed as Kd, was 0.936 nM; the koff came to 1.63e-05 s⁻¹; the kon worked out at 17400 M⁻¹ s⁻¹.

B4: CD38-DOTAM(fab)-dp53 (bispecific antibody)
light: B3 light
heavy: VTLKESGPVLVKPTETLTLTCTVSGFSLSTYSMSWIRQPPGKALEWLGFIGSRGDTYYASWAKGRLTISKDTSKSQVVLTMTNMDPVDTATYYCARERDPYGGGAYPPHLWGRGTLVTVSSASTKGPSVFPLAPSSKSTSGGTAALGCLVKDYFPEPVTVSWNSGALTSGVHTFPAVLQSSGLYSLSSVVTVPSSSLGTQTYICNVNHKPSNTKVDKKVEPKSCG
notes: No tetramerization domain; also called YM00007; molecule 6
In assay [2], B4 showed a Kd of 12.7 nM, a koff of 0.000214 s⁻¹ and a kon of 16800 M⁻¹ s⁻¹. Also, the concentration for a half-maximal effect (EC50) in assay [3] is 0.51 nM. In assay [5], the Kd was found to be 0.132 nM, the off-rate (koff) came to 0.000189 s⁻¹ and the kon was determined as 1.43e+06 M⁻¹ s⁻¹.

B5: CD38-DOTA(fab)-p53_C-Term-LC (bispecific antibody)
light: QAVVIQESALTTPPGETVTLTCGSSTGAVTASNYANWVQEKPDHLFTGLIGGHNNRPPGVPARFSGSLIGDKAALTIAGTQTEDEAIYFCALWYSDHWVIGGGTRLTVLGQPKANPTVTLFPPSSEELQANKATLVCLISDFYPGAVTVAWKADGSPVKAGVETTKPSKQSNNKYAASSYLSLTPEQWKSHRSYSCQVTHEGSTVEKTVAPTECSGGGGSGGGGSGGGGSGGGGGSDVQLQESGGGLVQAGGSLRLSCTGSGRTFRNYPMAWFRQAPGKEREFVAGITWVGASTLYADFAKGRFTISRDNAKNTVYLQMNSLKPEDTAVYSCAAGRGIVAGRIPAEYADWGQGTQVTVSS
heavy: HVKLQESGPGLVQPSQSLSLTCTVSGFSLTDYGVHWVRQSPGKGLEWLGVIWSGGGTAYNTALISRLNIYRDNSKNQVFLEMNSLQAEDTAMYYCARRGSYPYNYFDAWGRGTTVTVSSASTKGPSVFPLAPSSKSTSGGTAALGCLVKDYFPEPVTVSWNSGALTSGVHTFPAVLQSSGLYSLSSVVTVPSSSLGTQTYICNVNHKPSNTKVDKKVEPKSCGGGGSGGGGSKPLDGEYFTLQIRGRERFEMFRELNEALELKDAQAGKEPGGS
notes: VHH at the C-terminus of the light chain; also called YM00013; molecule 12
In assay [2], B5 had a Kd of 1.28 nM, a koff of 0.000103 s⁻¹ and an on-rate (kon) of 80700 M⁻¹ s⁻¹. Moreover, a half-maximal effect in assay [3] (EC50) was put at 3.75 nM. In assay [6], this molecule gave a dissociation constant (Kd) of 0.313 nM, a koff of 1.3e-05 s⁻¹ and an on-rate constant (kon) of 41500 M⁻¹ s⁻¹.

B6: HER2-DOTA(Fab)-p53 (bispecific antibody)
light: QVQLQESGGGSVQAGGSLKLTCAASGYIFNSCGMGWYRQSPGRERELVSRISGDGDTWHKESVKGRFTISQDNVKKTLYLQMNSLKPEDTAVYFCAVCYNLETYWGQGTQVTVSSGGGSGGGSGGGSGGGGSQAVVTQESALTTSPGETVTLTCRSSTGAVTTSNYANWVQEKPDHLFTGLIGGNNNRPPGVPARFSGSLIGDKAALTIAGTQTEDEAIYFCALWYSNHWVFGGGTRLTVLGQPKSSPSVTLFPPSSEELETNKATLVCTITDFYPGVVTVDWKVDGTPVTQGMETTQPSKQSNNKYMASSYLTLTARAWERHSSYSCQVTHEGHTVEKSLSPAECS
heavy: HVKLQESGPGLVQPSQSLSLTCTVSGFSLTDYGVHWVRQSPGKGLEWLGVIWSGGGTAYNTALISRLNIYRDNSKNQVFLEMNSLQAEDTAMYYCARRGSYPYNYFDAWGRGTTVTVSSASTKGPSVFPLAPSSKSTSGGTAALGCLVKDYFPEPVTVSWNSGALTSGVHTFPAVLQSSGLYSLSSVVTVPSSSLGTQTYICNVNHKPSNTKVDKKVEPKSCGGGGSGGGGSKPLDGEYFTLQIRGRERFEMFRELNEALELKDAQAGKEPGGSGGAPHHHHHH
notes: Tetramerizes through p53 depending on concentration; also called YM00018; molecule 2
For the molecule B6, in assay [7], the dissociation constant Kd is 0.0588 nM, the off-rate (koff) came to 2.25e-05 s⁻¹ and the kon was found to be 383000 M⁻¹ s⁻¹.

B7: CD38-DOTA(Fab)-p53 (bispecific antibody)
light: B2 light
heavy: B6 heavy
notes: VHH-Fab fusion of two polypeptide chains; Tetramerizes through p53 depending on concentration; also called YM00016; molecule 1
B7: in assay [3], the midpoint of the response, the EC50, lay at 0.65 nM. In assay [8], this molecule yielded a dissociation constant Kd of 0.0257 nM, a koff of 1.41e-05 s⁻¹ and a kon of 550000 M⁻¹ s⁻¹.

The term Kd denotes the free concentration of one partner at which half of the binding sites on the other are occupied at equilibrium, for simple one-to-one binding. A low value points to higher affinity. What is called koff is a measure of how fast the partners let go of each other. As a reminder, the kon is the rate constant with which the complex forms. Low values mean slower complex formation, high ones faster complex formation. One may read the EC50 as the concentration giving half of the maximal effect.
